The text below walks through data of the DeepSol protein solubility set.

The data set in a line: soluble on expression in E. coli; label from the status in PepcDB or PDB records.
For “ATQGRLRRRPEGARVPSARRGRPRARWRAPQNNPEVDSIMAELKVEAPASVDWQKRCLTLETQLFRFRLQASKIRELLADKMQELEQRLLEAEQRAENAETQVGVMEEKVKLSNLKNVDSEGSLHRKYQELLKAIKGKDELISQLEAQLEKQKQMRAEEAKTVQEKAAKIKEWVTLKLAKLEMENQHLKSHNQRLVEQVGSLQDALEAIQIAPSRKLLVPPYGAAEQDSVPSEPGIQPMGQDSGSQAQGLKAAVLAPSPGALQSKDSVSEAASPLEDSSSSTVHSGETVEAKPLQPHLGRESPPHQPCMKLLTFRCSSASWGEGLVTAQRGMLPGTKTSAREGGPGSSLTLPKVRAPGTPRDSIQLAKRHHSQPQVGHGHFGRVVNIETEAFSALHPSGLPELESRARSREEPEKMEMEEPPPAGKNEERESPKALGAELEEVELGNKPPTPPLHQFSSWESRIYAVATSGMRLSDMSPRSNTACCASSPPALVSPGSFSGLVYKNVTVPVYTALKGRATQISNMPFMDESSGSDDDCSSQASFRISVPSSESRKTSGLGSPRAIKRGVSMSSLSSEGDYAIPPDACSLDSDYSEPEHKLQRTSSYSTDGLGLGGESLEKSGYLLKMGSQVKTWKRRWFVLRQGQIMYYKSPSDVIRKPQGQVDLNSRCQIVRGEGSQTFQLISEKKTYYLTADSPSLLEEWIRVLQSLLKVQATGPPALLRGGTKPTVKGWLTKVKHGHSKVVWCALVGKIFYYYRSHEDKRPLGCLPVRDAHIEEVDRSCDSDEDYEAGGTRRLLSSHCTLVIHPTEHSPTYLLIGTKHEKDTWLYHLTVAAGGSSAKVGTAYEQLIGKLMDGEGDPDSPLWRHPMLCYSKDGLYASLTTLPSEALQTEALKLFKSCQLFINVPVEAASVDYHVSLAQTALQVCLVHPELQSEIYCQLMKQTSCRPPQKYSLMQCWQLLALCAPLFLPQHHFLWYVKQQLQRHADPRSETGQYATYCQRAVERTLRTGEREARPSRMEVVSILLRNPFHHSLPFSIPVHFTNGTYHVVGFDGSSTVDEFLQRLNQEIGMRKPSHSGFALFTDDPSGRDLEHCLQGSVKICDAISKWEQAMKELHPGKSEGGTRVVKLMYKNRLYFRSQVKGETDRERLLLASQTSREIVAGRFPINKELALEMAALMAQVEYGDLEKPALPGPGGTSPAKAQHLLQQVLDRFHPRRYRHGAPAEQLRHLADMLTTKWATLQGCSPPECIRIYLTVARKWPFFGAKLFAAQPAQLSSKENALVWIAVNEDGVSILDHNTMQVHITYPYSSVTTFGGCRDDFMLVIRSIPDKSSGKSHIEKLIFRMAAPKIAEATFIMASYMNHCTTTVNPPTNPPGACQLWELDGRQFFSSVSCATKGPTLL”, the “soluble on expression in E. coli” value was “soluble”. Then “MAHHHHHHMDLNDFLRNTKTAAQDGSAGVRTLLSGHKRFADTNEASAEASSSGAGASGKRPRRSGTAEGLNIRAAQEALAQERGNTSAQAQQQRAQAELLSEQAAARMVHQVLEYVMQVELGGRHNAAKGGIAPFVPSAAQLAAEKAMWTPAAGYVIHHVVPATLDTSPHTLESLMSVTEKERVPDGVRALRGTLQVFDTERDLVGGVRTGMAPHLRTHVLEVLEKGLHGRAWLRDDAAVATQISALGKPTTPDKGPSSVLLFGDLATASVANSDATSSARDTASAGDEASKPRSKGFSLAAFLNGNDPTSSSSDGEDP”, with “not soluble”; and “HSLFPIPRMGDSAAKIVSPQEALPGRKEPLVVAAKHHVNGNRTVEPFPEGTQMAVFGMGCFWGAERKFWTLKGVYSTQVGFAGGYTPNPTYKEVCSGKTGHAEVVRVVFQPEHISFEELLKVFWENHDPTQGMRQGNDHGSQYRSAIYPTSAEHVGAALKSKEDYQKVLSEHGFGLITTDIREGQTFYYAEDYHQQYLSKDPDGYCGLGGTGVSCPL”, with “soluble”; and “MEYSNFFDDLKSNIIGQYEECKAYRILCESQGYNPSEHLRSEKDITNIPFLATTLFKKSANLFLSLLRVEPDKLDKWTLSSSTSGDPSMVGRRNSDLMQIRKFVLMDDKFYDSASEYNCVFYPEPKVMREYKSVRIMDKPTESYIGNLLGIFDFSENTTFLLKSCGEGFSVDMNSFEEFLKFNNERNNHLSLRGSTLLLYNAVLELKKQGKGPYNLGSRAIVHTGGGGWDGKKGNISIGTKIERYQFVEEISEFLGIPQKNFRDTYSFTENTFPMDGHYSEKLRSYLFHVPTWGRVIIRDVKTLEPLNKPGDRGLVQVLNAYGTSSFAGASILVDDIAEIVANDSCPECKHEGMTFKIVGRVKGSEAKGCGATLDVRGKQKLEHHHHHH”, with “soluble”. The entry for “MQVRIERAERIESELEEHVGDQTFVEESRFLEEDEQREGEILDQIIFVDGKRRSFVRITTDEGITGIFAELCVGAVIWDREGGTKTLFSPDKPPVKERVLGFSQSFQEEGYEEVGGILFKVVKEGKDAMQSIDLYMRSLEIEEVRKHMDKNILIVKDGPAARELPFEENVGPIGLVKNIGVTELSKEDFKKLRFLKKGKRSKMFVSSRETPLKKVGAYVKLIDGEGIRGLVRLETYVKDDNQIPYIRKVFDDLAKTLPHLTADLPIPRLPENILPIQFLEENLSYYLTDKNYMNTRLFAYIGR” is “not soluble”. In the case of “MGHHHHHHSHELIREVEMGPFKHTVDDGLDIRKAAFECMYTLLDSCLDRLDIFEFLNHVEDGLKDHYDIKMLTFLMLVRLSTLCPSAVLQRLDRLVEPLRATCTTKVKANSVKQEFEKQDELKRSAMRAVAALLTIPEAEKSPLMSEFQSQISSNPELAAIFESIQKDSSSTNLESMDTS”, the “soluble on expression in E. coli” value is “not soluble”. Then “MAGASETYTHTLTDVPIDIKYDSDDYFISGYSYGADVYMSSVNRVKLDSEINEDTRKFKVVADLTNMKPGTHKVPLKVVNLPSGVNATVSPTTITVTMGKKKTKEFPLEHHHHHH”, with “not soluble”; and “MSKLYFRYGAMNSGKSTHLMQVAHNYEERGMEVIIIKPSTDKKGGDKVVSRLGVERVVDILIDNDENIIETIEDRLEKGRKIDCIIVDEVQFLKAHHIDELFEIAVGKGIPVICYGLRTDFQMNGFEGSERLLLLAHSIEEMKTICRCGRKAILNGRMINGKFTFEGEQVAIDLVDNVEYQSLCGQCYFKYKYGKDSDNLEHHHHHH”, with “soluble”. As for “MVDSDDDGDRRRDKFARERRDEDYRRGGGGFNRYDNKRPGGRRDDYQVKRSRGDDADDSFDPVSRSGNGSDLPTESDSIYSGPLQTFKKFLTSQEDDISEEDAIKKYNEYKTEHRKHQLERFFRAHKDEEWFRLKYKPDDAKKLREAHLENVQKRLQVFNELKEQGQFNKFSLDFGDAEAIIRMLDSVVVKLENGTEDELKAVLAQKLEDESLADIKKDENGNGTEQPKEEPEVKQESGATEELEEGAIEDGTEKSSNKVNIHRTCSVFLRNIPPGLTYEELEGLCKKSPGFLRLALTDGIAERKFYRRGWATFKRDINIKEICWALNAHRLRETDLNAIINRDITRRVRTNNGIASHKQVAINDLKLAVKLTVLYDKKIGLFNAADEADADREMDIRMGVDLVAASTNPLIKEVKSLVPHDVLNDISEEEAELLGVSNGGEAPAEKIRFERDDNILKALDLLIVYLRIVHSIDFYNHGHYAQEDSMPNRCGLIHVRGQPPSGVSITTDEDGALVVPQKFVNDFISGFNSRIEKGLIEKQYVSEEELEKMGKKDGEKEVEAFIQKNTVELAKDKWLCPLSGKKFKGPEFIRKHLQSKHEDKLEEARAEADFFNNYLADAQRPVDCEPKQAPRDDHRGGGGGERGGYGRERDDDRGPGGGGRNSFGGGGYDRRPQFPPRHSLGGRGGGGRYFEDAPRRQPVSYRDLDAPDDIP”, the “soluble on expression in E. coli” value was “not soluble”.

For the sequence “MSEFWLISAPGDKENLQALERMNNVTSKSNLSHNTKFAIPDFKVGTLDSLVGLSDELGKLDTFAESLIKRMAQSVVEVMEDSKGKAHETLLANGVDLTSFVTHFEWDMAKYPAKQPLVSVVDTLAKQLAQIETDLKSRTAAYSVLKANLENLEKRSTGNLFTRTLSDIVSKEDFVLDSEYLITLLVIVPKSSFAQWQKTYESLSDMVVPRSTKLIAEDNEGGLFTVTLFRKVIEDFKVKAKENKFIVREFYYDEKEIKREREEMTRLLSDKKQQYPTSCVALKKGSATYRDHKVKVAPLGNPARPAAGQTDRDRESEGEGEGPLLRWLKVNFSEAFIAWIHIKALRVFVESVLRYGLPVNFQAVLLQPHKKSATKRLREVLNSVFRHLDEVAAASILDASVEIPGLQLSNQDYFPYVYFHIDLSLLD”, the “soluble on expression in E. coli” value is given as “soluble”. For “SQKLADFKLPQFFNYPPYFTLQPVRDTREKQIQLWKELILDYCKSQKIFLIGVEEDFPLFSNSAIDRSLSHEARETFLSAIVGEGRAEWLDKGHRKCLILWHRIQDWADIVLQFVRDNGLEDSVMTVEEIRSGTESLGTELQGIDRTILMRALKLLENKGKLALFKGTSADDEGVKFSV”, the “soluble on expression in E. coli” value was “soluble”. For the sequence “MGSDKIHHHHHHMEVEITITVRKVRIPEDVAVLEIFGQYDKRARYLKKLFNVEFAVRDSEILIKGMDEKSVDAAHRVLDEIISITRDGHLLDWTEFEYLVERVSNSESVKEVYSNNSKGLIIGKKVKPKTLGQKKYLEAVEKNDVVFVIGPAGTGKTYLAVAVALDYLKMGKVNRIILTRPAVEAGEKLGYLPGDLSEKVEPYLRPLYDAIIDITSPDKFNSYRERGIIEIVPLAYMRGRTLNNSFIILDEAQNTTYQQMKMFLTRLGFNSKAVITGDITQVDIEKEKSGLIECQKILEGISGIEFVYLNESDVVRHPLVKKIIKAYEEYERSRKS”, the “soluble on expression in E. coli” value is given as “not soluble”. Regarding “MTTGNNDFYYSNKYEDDEFEYRHVHVTKDVSKLIPKNRLMSETEWRSLGIQQSPGWMHYMIHGPERHVLLFRRPLAATQKTGGNVRSGNAVGVR”, the “soluble on expression in E. coli” value is “not soluble”. Turning to “MSLLDFGFDESRIYFTVTDRFFNGDKNNDDPHGNNYDKKNPYTYHGGDLKGLTDKISYLKELGINTIWITPIVENTDFNQMFSQGKTQYSCHGYWAKDFEKLDPHLGTMDDLKTLIDTAHDSGIKIMVDVVLNHAGYGMKNKDNSGANNSPTEEDIAKFKGMFRENPGNDFITQESAGLPDFKTEDPEVREKLIEWQTGWIERSKTEKGNTIDYFRVDTVKHVDNTTWKAFKNKLTEINPSFKTIGEYFGADINNDGGQLQNGQMDALLDFGYKGKARDFVNGNIEGTSAYLDDRASKISNTNLMGQFLSSHDEDGFLKTVGDDLGKQMLAASLQITDKGIPVIYYGEELGMSGWNGFEQGDQNRYDMDFERLNDPKYKKVHDHYEKLLNIRKEYSKIFSKGNRKTIAGNNEEGYSVVLRSYNGKEITPMNLSENNEEKNITNGQNLFVVLNTKNEDKDISFKTNFKEGEKVKDLYSGNEYSIGKDGKVTVKVPSKEGHHHHHH”, the “soluble on expression in E. coli” value is “not soluble”. Consider “MEIIHLSEIDSTNDYAKELAKEGKRNFIVLADKQNNGKGRWGRVWYSDEGGLYFSMVLDSKLYNPKVINLLVPICIIEVLKNYVDKELGLKFPNDIMVKVNDNYKKLGGILTELTDDYMIIGIGINVNNQIRNEIREIAISLKEITGKELDKVEILSNFLKTFESYLEKLKNKEIDDYEILKKYKKYSITIGKQVKILLSNNEIITGKVYDIDFDGIVLGTEKGIERIPSGICIHVR”, for which the “soluble on expression in E. coli” value was “soluble”.

Regarding “MGHHHHHHSHMREPWLFGEEHTRLIREAIRERYGLLPYWYSLFYHAHVASQPVMRPLWVEFPDELKTFDMEDEYMLGSALLVHPVTEPKATTVDVFLPGSNEVWYDYKTFAHWEGGCTVKIPVALDTIPVFQRGGSVIPIKTTV”, the “soluble on expression in E. coli” value is listed as “soluble”. For “MACKNPKKFFPIRKSPVLRDGAFKGKLVLVTGGGTGIGKAIATTFAHLRATVVIAARRMEKLEQTARDITKITGGTCEPFQMDIKDPGMVSDAFDKIDMKFGKVPEILVNNAAGNFIMATELLSSNAYGTIIDIVLKGTFNVTTELGKRCIQNKTGASITSITAGYARAGAPFIVPSAVSKAGVETMTKSLATEWSKYGLRFNAVSPGPIPTKGAWGRLNSGEMGDIAEKMKFLNPEGRVGSPEEVANLVAFISSDHMSFLNGAIIDLDGGQQHFNHGSHMGDFLHSWDHKNWEDAENLIRGRTGKEKA”, the “soluble on expression in E. coli” value is “not soluble”.
